What was measured:
[1] = molecular target: G-Ara h 2/6 (native Ara h 2/6 heated for 15 min to 110°C in the presence of 100 mM glucose); assay: SEC; Superdex-75 column on an Äkta Basic FPLC, calibrated with gel filtration molecular weight standards; Ara h 2/6 before and after heating for 15 min at 110°C in the presence or absence of glucose
[2] = molecular target: H-Ara h 2/6 (native Ara h 2/6 heated for 15 min to 110°C alone); assay: as above

| Substance | percent of the protein remaining monomeric [1] [%] | percent of the protein remaining monomeric [2] [%] |
| --- | --- | --- |
| G-Ara h 2/6 (native Ara h 2/6 heated for 15 min to 110°C in the presence of 100 mM glucose) | 20 | – |
| H-Ara h 2/6 (native Ara h 2/6 heated for 15 min to 110°C alone) | – | 20 |

Reference: PMC3162016
